In article PMC11710176 (Alzheimer's & Dementia, 2024):
Several values for one entry are separate records, joined by “and”; a condition that tells them apart may be missing. Identical values can stand only once.

Target: tau oligomers (UniProt P10636 1-758)
Experiment: SPR; who was immobilised and the conditions not given
Conditions: both partners purified

B1: cellular prion protein (natural protein)
chain: not shown
notes: also called PrP^C; PrPC
Kd: 20 nM and 50 nM
